Data taken from patent US20230074436A1 (DENALI THERAPEUTICS, published 2023).
No end group written: not given here. *: point of attachment. Biotin = O=C1N[C@H]2[C@H](CS[C@H]2CCCCC(=O)*)N1

Legend:
[1] = molecular target: human alpha-synuclein monomer (human, UniProt P37840 1-140); assay: SPR (Biacore), antibody captured, monomer injected, 1:1 fit
Procedure: Anti-mouse Fc antibody (obtained from GE Healthcare) was immobilized on the surface of a CM5 chip (obtained from GE Healthcare) through amine-coupling to reach about 6,000 to 8,000 response units (RU). The surface was activated by injection of a mixture of 1-ethyl-3-(3-dimethylaminopropyl)-carbodiimide (EDC) and N-hydroxysuccinimide (NETS), both obtained from GE Healthcare, for 7 minutes at room temperature. […] Both injections were done at room temperature.
Purified rat anti alpha-synuclein antibody (10 μg/mL) was injected at room temperature and captured to reach 1,000 to 2,000 RU. […] Sensorgrams were fitted using a 1:1 Langmuir model to estimate kₒₙ and koff.

asyn_113-127_119A [2] = molecular target: T1, asyn_113-127_119A (human); assay: Ala-scan peptide ELISA, row D, run 2
T1 construct: substitution is already in the entry; also called pep8
T1 peptide: Biotin-LEDMPVAPDNEAYEM
Procedure: (§1) 96-well Nunc plates were coated with 50 μL per well of 1 μg/mL streptavidin (from Jackson Immuno Research Laboratory) in PBS at 4° C. overnight. The plates were washed three times with PBST, and blocked with PBS containing 3% BSA at room temperature for 1 hour. The N-terminal biotinylated peptides were dissolved in Milli Q water to a concentration of 2 mg/mL, then further diluted to a concentration of 2 μg/mL with PBS. 50 μl of the diluted peptide was applied to the streptavidin-coated plates and incubated at 4° C. overnight. 2 μg/mL of biotinylated human alpha-synuclein was used as the positive control. The plates were washed three times with PBST before use. Purified antibody was diluted by serial dilution methods, from 20 μg/mL to 1 ng/mL, and 50 μL of the antibody solution was added to the peptide-coated wells. The plates were incubated for 1 hour at room temperature, then washed three times with PBST. Secondary detection antibody (goat anti-rat HRP (obtained from Southern Biotech)) was added with 1:5,000 dilutions and incubated for 1 hour at room temperature, then washed three times with PBST. Plates were developed with 50 μL/well of TMB substrate (Thermo Fisher) and quenched with 50 μL/well of 1 N sulfuric acid. The signal was quantified on a BioTek® plate reader at A450. A parallel repeat was performed for each peptide in a separate plate.

asyn_113-127_127A [3] = molecular target: T2, asyn_113-127_127A (human); assay: Ala-scan peptide ELISA, row D, run 2
T2 construct: substitution is already in the entry; also called pep17
T2 peptide: Biotin-LEDMPVDPDNEAYEA
Procedure: as §1

asyn_113-127 [4] = molecular target: T3, asyn_113-127 (human); assay: Ala-scan peptide ELISA, row D, run 2
T3 construct: also called pep1
T3 peptide: Biotin-LEDMPVDPDNEAYEM
Procedure: as §1

asyn_113-127_124G [5] = molecular target: T4, asyn_113-127_124G (human); assay: Ala-scan peptide ELISA, row D, run 2
T4 construct: substitution is already in the entry; also called pep13
T4 peptide: Biotin-LEDMPVDPDNEGYEM
Procedure: as §1

asyn_113-127_126A [6] = molecular target: T5, asyn_113-127_126A (human); assay: Ala-scan peptide ELISA, row D, run 2
T5 construct: substitution is already in the entry; also called pep16
T5 peptide: Biotin-LEDMPVDPDNEAYAM
Procedure: as §1

asyn_113-127_119A [7] = molecular target: T1, asyn_113-127_119A; assay: Ala-scan peptide ELISA, row F, run 2
Procedure: as §1

asyn_113-127_127A [8] = molecular target: T2, asyn_113-127_127A; assay: Ala-scan peptide ELISA, row F, run 2
Procedure: as §1

asyn_113-127_123A [9] = molecular target: T6, asyn_113-127_123A (human); assay: Ala-scan peptide ELISA, row F, run 2
T6 construct: substitution is already in the entry; also called pep12
T6 peptide: Biotin-LEDMPVDPDNAAYEM
Procedure: as §1

asyn_113-127_114A [10] = molecular target: T7, asyn_113-127_114A (human); assay: Ala-scan peptide ELISA, row F, run 2
T7 construct: substitution is already in the entry; also called pep3
T7 peptide: Biotin-LADMPVDPDNEAYEM
Procedure: as §1

asyn_113-127_117A [11] = molecular target: T8, asyn_113-127_117A (human); assay: Ala-scan peptide ELISA, row F, run 2
T8 construct: substitution is already in the entry; also called pep6
T8 peptide: Biotin-LEDMAVDPDNEAYEM
Procedure: as §1

asyn_113-127_116A [12] = molecular target: T9, asyn_113-127_116A (human); assay: Ala-scan peptide ELISA, row F, run 2
T9 construct: substitution is already in the entry; also called pep5
T9 peptide: Biotin-LEDAPVDPDNEAYEM
Procedure: as §1

asyn_113-127_120A [13] = molecular target: T10, asyn_113-127_120A (human); assay: Ala-scan peptide ELISA, row F, run 2
T10 construct: substitution is already in the entry; also called pep9
T10 peptide: Biotin-LEDMPVDADNEAYEM
Procedure: as §1

asyn_113-127_124P [14] = molecular target: T11, asyn_113-127_124P (human); assay: Ala-scan peptide ELISA, row F, run 2
T11 construct: substitution is already in the entry; also called pep14
T11 peptide: Biotin-LEDMPVDPDNEPYEM
Procedure: as §1

asyn_113-127_113A [15] = molecular target: T12, asyn_113-127_113A (human); assay: Ala-scan peptide ELISA, row F, run 2
T12 construct: substitution is already in the entry; also called pep2
T12 peptide: Biotin-AEDMPVDPDNEAYEM
Procedure: as §1

asyn_113-127_122A [16] = molecular target: T13, asyn_113-127_122A (human); assay: Ala-scan peptide ELISA, row F, run 2
T13 construct: substitution is already in the entry; also called pep11
T13 peptide: Biotin-LEDMPVDPDAEAYEM
Procedure: as §1

asyn_113-127_118A [17] = molecular target: T14, asyn_113-127_118A (human); assay: Ala-scan peptide ELISA, row F, run 2
T14 construct: substitution is already in the entry; also called pep7
T14 peptide: Biotin-LEDMPADPDNEAYEM
Procedure: as §1

asyn_113-127_125A [18] = molecular target: T15, asyn_113-127_125A (human); assay: Ala-scan peptide ELISA, row F, run 2
T15 construct: substitution is already in the entry; also called pep15
T15 peptide: Biotin-LEDMPVDPDNEAAEM
Procedure: as §1

asyn_113-127_119A [19] = molecular target: T1, asyn_113-127_119A; assay: Ala-scan peptide ELISA, row C, run 1; note: test concentration or dose not given here
asyn_113-127_127A [20] = molecular target: T2, asyn_113-127_127A; assay: Ala-scan peptide ELISA, row C, run 1; note: test concentration or dose not given here
asyn_113-127_123A [21] = molecular target: T6, asyn_113-127_123A; assay: Ala-scan peptide ELISA, row C, run 1; note: test concentration or dose not given here
asyn_113-127_114A [22] = molecular target: T7, asyn_113-127_114A; assay: Ala-scan peptide ELISA, row C, run 1; note: test concentration or dose not given here
asyn_113-127_117A [23] = molecular target: T8, asyn_113-127_117A; assay: Ala-scan peptide ELISA, row C, run 1; note: test concentration or dose not given here
asyn_113-127 [24] = molecular target: T3, asyn_113-127; assay: Ala-scan peptide ELISA, row C, run 1; note: test concentration or dose not given here
asyn_113-127_121A = molecular target: T16, asyn_113-127_121A (human); assay: Ala-scan peptide ELISA, row C, run 1
T16 construct: substitution is already in the entry; also called pep10
T16 peptide: Biotin-LEDMPVDPANEAYEM
Procedure: as §1

asyn_113-127_124G [25] = molecular target: T4, asyn_113-127_124G; assay: Ala-scan peptide ELISA, row C, run 1
Procedure: as §1

asyn_113-127_116A [26] = molecular target: T9, asyn_113-127_116A; assay: Ala-scan peptide ELISA, row C, run 1
Procedure: as §1

asyn_113-127_120A [27] = molecular target: T10, asyn_113-127_120A; assay: Ala-scan peptide ELISA, row C, run 1
Procedure: as §1

asyn_113-127_124P [28] = molecular target: T11, asyn_113-127_124P; assay: Ala-scan peptide ELISA, row C, run 1
Procedure: as §1

asyn_113-127_126A [29] = molecular target: T5, asyn_113-127_126A; assay: Ala-scan peptide ELISA, row C, run 1
Procedure: as §1

asyn_113-127_113A [30] = molecular target: T12, asyn_113-127_113A; assay: Ala-scan peptide ELISA, row C, run 1
Procedure: as §1

[31] = molecular target: biotinylated human alpha-synuclein (human, UniProt P37840 1-140); assay: Ala-scan peptide ELISA, row C, run 1
Procedure: as §1

asyn_113-127_122A [32] = molecular target: T13, asyn_113-127_122A; assay: Ala-scan peptide ELISA, row C, run 1
Procedure: as §1

asyn_113-127_118A [33] = molecular target: T14, asyn_113-127_118A; assay: Ala-scan peptide ELISA, row C, run 1
Procedure: as §1

asyn_113-127_125A [34] = molecular target: T15, asyn_113-127_125A; assay: Ala-scan peptide ELISA, row C, run 1
Procedure: as §1

asyn_113-127_115A = molecular target: T17, asyn_113-127_115A (human); assay: Ala-scan peptide ELISA, row C, run 1
T17 construct: substitution is already in the entry; also called pep4
T17 peptide: Biotin-LEAMPVDPDNEAYEM
Procedure: as §1

B1: 20H4 (antibody, rat IgG2b, V domains shown)
VH: AVQLVESGGGLVQPKESLKISCAASGFTFSNAAMYWVRQAPGKGLELLARIRTKPNNYATYHADSVKGRFTISRDDSQSMVYLHMGNLKTEDTAMYYCTADMATGDYWGPGVMVTVSS
VL: DIQMTQSPPVLSVSVGDRVTLSCKASQNINKNLDWYQQKHGEAPKPLIYSTNNLQTGVPSRFSGSGSGTDYTLTISSLQPEDVATYYCYQYKSAWTFGGGTKLELR
notes: also called clone 20H4; rat 20H4
Kd [1]: 3.01 nM
A450 (asyn_113-127_119A [2]): 0.046 OD
A450 (asyn_113-127_127A [3]): 0.414 OD
A450 (asyn_113-127 [4]): 0.331 OD
A450 (asyn_113-127_124G [5]): 0.287 OD
A450 (asyn_113-127_126A [6]): 0.342 OD
A450 (asyn_113-127_119A [7]): 0.045 OD
A450 (asyn_113-127_127A [8]): 0.162 OD
A450 (asyn_113-127_123A [9]): 0.151 OD
A450 (asyn_113-127_114A [10]): 0.139 OD
A450 (asyn_113-127_117A [11]): 0.163 OD
A450 (asyn_113-127_116A [12]): 0.165 OD
A450 (asyn_113-127_120A [13]): 0.111 OD
A450 (asyn_113-127_124P [14]): 0.047 OD
A450 (asyn_113-127_113A [15]): 0.159 OD
A450 (asyn_113-127_122A [16]): 0.049 OD
A450 (asyn_113-127_118A [17]): 0.172 OD
A450 (asyn_113-127_125A [18]): 0.051 OD
A450 (asyn_113-127_119A [19]): 0.059 OD
A450 (asyn_113-127_127A [20]): 0.379 OD
A450 (asyn_113-127_123A [21]): 0.476 OD
A450 (asyn_113-127_114A [22]): 0.417 OD
A450 (asyn_113-127_117A [23]): 0.494 OD
A450 (asyn_113-127 [24]): 0.48 OD
A450 (asyn_113-127_121A): 0.443 OD
A450 (asyn_113-127_124G [25]): 0.34 OD
A450 (asyn_113-127_116A [26]): 0.48 OD
A450 (asyn_113-127_120A [27]): 0.323 OD
A450 (asyn_113-127_124P [28]): 0.051 OD
A450 (asyn_113-127_126A [29]): 0.371 OD
A450 (asyn_113-127_113A [30]): 0.498 OD
A450 [31]: 0.588 OD
A450 (asyn_113-127_122A [32]): 0.052 OD
A450 (asyn_113-127_118A [33]): 0.403 OD
A450 (asyn_113-127_125A [34]): 0.049 OD
A450 (asyn_113-127_115A): 0.417 OD
